The data set deals with MS2 coat protein. As to the kind of experiment: apparent KD of MS2 coat protein; higher = weaker reporter binding. The note with it: Eterna round: R107. The method in brief: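 Designed RNA switches, transcribed on-chip from Illumina sequencing clusters, were titrated with SNAP-549-labelled MS2 coat protein from 0.7 or 1.5 nM to 3 µM in twofold steps. The solution was 100 mM Tris-HCl pH 7.5, 80 mM KCl, 4 mM MgCl2, with constant ligand or without it. Apparent KD is the median over each design's normalised cluster binding-curve fits.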

Setting [1] is: input ligand: theophylline 20 uM.
[2] abbreviates: input ligand: theophylline 2 mM.
Where [3] appears, read: input ligand: tryptophan 2.4 mM.

For the sequence “UUCUUUGACGAUCUGGGUUUACCAGAUCGACGAGGACCGGUACGGCCGCCACUCGUGUUUUCUUUACAUGAGGAUCACCCAUGUU [#16Tryptophan A Same State]”, the “apparent KD of MS2 coat protein” value was 16.2 nM (input ligand: arginine 13.2 mM), 22.6 nM under setting [1] and 19.1 nM under setting [2].

On to “ACAUGAGGAUCACCCAUGUAAGGUCUUGAUACCAGACGAGAAGUAGUCCCUUGGCAGCAAAUACGUGAGGGUCACACAUGUGUAA [edsmullin]”, for which the “apparent KD of MS2 coat protein” value reads like this: (input ligand: arginine 13.2 mM) 21.6 nM; under setting [1], 37.7 nM; under setting [3], 25.9 nM.

Regarding “ACUCGGUGUUUGUUGCUCCGAGUGUAUGAUACCAGUUAGUUUUAUGGCCCUUGGCAGCAUAGGACAUGAGGAUCACCCAUGUGUU [#02 SameState-TheophyllineA]”, the “apparent KD of MS2 coat protein” value reads like this: (input ligand: arginine 13.2 mM) 27.3 nM; under setting [1], 41.1 nM; under setting [3], 34.9 nM.

For “UUGUUGUUUGGAAGGAGCGUGGAUGAGUUAGAACAUGAGGAUCACCCAUGUUGGAUGAUACCACAGGUAGGUCGCCGGGUGGUGG [11.Z]”, the “apparent KD of MS2 coat protein” value (input ligand: arginine 13.2 mM) came to 229 nM; the “apparent KD of MS2 coat protein” value (input ligand: none) stood at 16.6 nM; the “apparent KD of MS2 coat protein” value under setting [1] stood at 48.8 nM; the “apparent KD of MS2 coat protein” value under setting [2] was 24.5 nM; the “apparent KD of MS2 coat protein” value under setting [3] turned out to be 21.4 nM.

Take “GGGCCCGGGCCCGCGCGGGCCCGGGCCCAACGAGGACCGGUACGGCCGCCACUCGAACGAGUGGGUACAUGAGGAUCACCCAUGU [Baa]”: the “apparent KD of MS2 coat protein” value by setting is: (input ligand: arginine 13.2 mM) 38.6 nM; (input ligand: none) 30.7 nM; under setting [1], 55.9 nM; under setting [2], 48.6 nM; under setting [3], 33.4 nM.

Regarding “UGUAUGUGAUCUGAUACCAGUCCAACUGGUAAAGCAUGAGGAUCACCCAUGCAAAAUUGGGACCCUUGGCAGCAGAUCGCAUACU”, the “apparent KD of MS2 coat protein” value is, setting by setting: (input ligand: arginine 13.2 mM) 167 nM; (input ligand: none) 264 nM; under setting [1], 213 nM; under setting [2], 28.1 nM; under setting [3], 267 nM.

For the sequence “ACAUGAGGAUCACCCAUGUACAUGAGGGAAGGAGCGGUACAUGUGCCAGGUAGGUCGCCCAACAGCAUCAGCCAUGUACAUCAGC [ppsmullin]”, the “apparent KD of MS2 coat protein” value turned out to be 38.1 nM (input ligand: arginine 13.2 mM); 113 nM (input ligand: none); 117 nM under setting [1]; 83.5 nM under setting [2]; 49.7 nM under setting [3].

Consider “UGGUACAUGAGGAUCACCCAUGUUCCAGAUACCAGUGUCCCGCUGCACCCUUGGCAGCUGGUGGCACAUGAGGAUCACCCAUGUG [Exclusion Theophylline A GF12]”, for which the “apparent KD of MS2 coat protein” value turned out to be 11.5 nM (input ligand: arginine 13.2 mM), 16.3 nM under setting [1] and 15.1 nM under setting [3].

Consider “UGUCAAUCGCCGGAUACCAGCCUAACUGAAGGAAAUCUAAACAUGAGGAUCACCCAUGUAGGCCCUUGGCAGCCGAGUAAGUACA [theeternabot_exclusion_MS2_Theo_B_15]”, for which the “apparent KD of MS2 coat protein” value (input ligand: arginine 13.2 mM) turned out to be 33.9 nM, the “apparent KD of MS2 coat protein” value under setting [1] is 65.4 nM and the “apparent KD of MS2 coat protein” value under setting [3] is 35.7 nM.

For “AACAUGAGGAUCACCCAUGUGUCCCUUGAUACCAGUCCCAUGUGAGACCCUUGGCAGCAAACAUGAGGAUCACCCAUGUCCCAUG [Same State Theophylline A 3]”, the “apparent KD of MS2 coat protein” value (input ligand: arginine 13.2 mM) is 60.9 nM, the “apparent KD of MS2 coat protein” value under setting [1] is 119 nM and the “apparent KD of MS2 coat protein” value under setting [3] came to 90.2 nM.

Turning to “UACCGAUGAAGAAGGAGCGUAUGCUUAUAUGAUGGUAACAUGAGGAUCACCCAUGUCAGUAUACAGGUAGGUCGCUUCAUCGGUA [EAB NP+V+V2 #22]”, the “apparent KD of MS2 coat protein” value was 45.3 nM (input ligand: arginine 13.2 mM); 59.1 nM (input ligand: none); 68.6 nM under setting [1]; 73.3 nM under setting [2]; 45.8 nM under setting [3].

With “UUGGAUGAAGGAGUGAAAAGCAACUCAGAUACCAGUCUGAGUAAUGACCCUUGGCAGCUGAGAACAUGAGGAUCACCCAUGUGAC [theeternabot_exclusion_MS2_Theo_A_34]”, the “apparent KD of MS2 coat protein” value worked out at 11.7 nM (input ligand: arginine 13.2 mM), 15.5 nM under setting [1] and 17.1 nM under setting [3].

Take “AUAUGAAAGAGUGAUACCAGACUACAUGAGGAUCACCCAUGUGACAUUUAAAUAUCAUUUGUCCCUUGGCAGCACAUUAAGUACA [JR_Nu_ExcTheophyB_Sub021]”: the “apparent KD of MS2 coat protein” value runs as follows: (input ligand: arginine 13.2 mM) 35.7 nM; under setting [1], 46.9 nM; under setting [3], 43 nM.

As to “GCUGUACCAUGAAGGAGCGUCAUGGAUUGCGAAUACACAUGAGGAUCACCCAUGUUUUUAUGACAGGUAGGUCGCAUGGUACAGC [#01 Same State - Arginine B]”, the “apparent KD of MS2 coat protein” value by setting is: (input ligand: arginine 13.2 mM) 17.8 nM; (input ligand: none) 14.5 nM; under setting [1], 24.5 nM; under setting [2], 19.2 nM; under setting [3], 17.1 nM.

Take “AAUAAACAUGAGGAUCACCCAUGUAGGGUGCGAGGACCGGUACGGCCGCCACUCGGGUGAAAACAUGAAAAUCACCCAUGUAAAA [Mat - Exclusion - Trytophan A - D24]”: the “apparent KD of MS2 coat protein” value by setting is: (input ligand: arginine 13.2 mM) 113 nM; (input ligand: none) 125 nM; under setting [1], 192 nM; under setting [2], 206 nM; under setting [3], 232 nM.

“CAUUGUUAGACGGCCGCCACUUUUGGUUCGGAACGAUCGAUUGGACAUGAGGAUCACCCAUGUGGAAGGACCGGGUCUAAUCAAA [theeternabot_sameState_MS2_Trp_B_20]”: the “apparent KD of MS2 coat protein” value worked out at 83 nM (input ligand: arginine 13.2 mM); 165 nM (input ligand: none); 328 nM under setting [1]; 265 nM under setting [2]; 134 nM under setting [3].

With “UGUAUGGACUGAAGGAGCGGGUUGAUACCAUGAGGAUCACCCAUGGAAAAGGCGAAAGCCGCCCAGGUAGGUCGCAGUCCAUACU”, the “apparent KD of MS2 coat protein” value was determined as 14 nM (input ligand: arginine 13.2 mM); 12.9 nM (input ligand: none); 19.7 nM under setting [1]; 18.4 nM under setting [2]; 16.6 nM under setting [3].
